Measurements from article PMC4434323.

Legend:
[1] = biological target: T1, pax-2 (K06B9.5) (Caenorhabditis elegans) (UniProt Q21263)
T1 sequence: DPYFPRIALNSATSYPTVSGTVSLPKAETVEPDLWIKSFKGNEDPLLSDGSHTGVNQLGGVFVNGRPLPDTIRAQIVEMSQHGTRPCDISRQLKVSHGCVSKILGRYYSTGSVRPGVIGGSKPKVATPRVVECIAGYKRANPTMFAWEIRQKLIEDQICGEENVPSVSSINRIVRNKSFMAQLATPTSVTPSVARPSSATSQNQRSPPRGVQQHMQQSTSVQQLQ

[2] = biological target: sptf-3 (Y40B1A.4) (Caenorhabditis elegans) (UniProt Q9XW26)
[3] = biological target: T2, ceh-26 (K12H4.1) (Caenorhabditis elegans) (UniProt P34522)
T2 sequence: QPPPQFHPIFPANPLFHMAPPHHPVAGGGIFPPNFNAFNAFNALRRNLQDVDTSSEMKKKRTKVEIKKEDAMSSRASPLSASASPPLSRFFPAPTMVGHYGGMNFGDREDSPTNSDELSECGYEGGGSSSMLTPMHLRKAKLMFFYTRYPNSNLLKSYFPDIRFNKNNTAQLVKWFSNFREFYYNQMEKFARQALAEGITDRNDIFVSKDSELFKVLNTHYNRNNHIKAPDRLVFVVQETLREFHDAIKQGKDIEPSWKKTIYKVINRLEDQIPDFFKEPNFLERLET

[4] = biological target: T3, Y61A9LA.9 (Y61A9LA.9) (Caenorhabditis elegans) (UniProt Q9N312)
T3 sequence: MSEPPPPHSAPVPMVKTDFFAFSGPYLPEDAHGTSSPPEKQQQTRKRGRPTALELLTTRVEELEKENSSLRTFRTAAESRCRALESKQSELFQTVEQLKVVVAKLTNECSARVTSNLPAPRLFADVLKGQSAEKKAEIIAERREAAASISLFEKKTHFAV

[5] = biological target: egrh-1 (C27C12.2) (Caenorhabditis elegans) (UniProt Q18250)
[6] = biological target: ZC328.2 (ZC328.2) (Caenorhabditis elegans) (UniProt O02050)
[7] = biological target: T4, ZK337.2 (ZK337.2) (Caenorhabditis elegans) (UniProt O46016)
T4 sequence: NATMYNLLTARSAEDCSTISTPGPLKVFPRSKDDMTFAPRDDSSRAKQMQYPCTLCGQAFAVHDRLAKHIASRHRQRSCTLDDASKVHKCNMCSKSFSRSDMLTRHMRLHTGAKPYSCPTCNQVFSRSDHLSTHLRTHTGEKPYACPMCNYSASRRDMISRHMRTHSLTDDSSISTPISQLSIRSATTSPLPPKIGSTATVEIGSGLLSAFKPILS

[8] = tested on: T5, slr-2 (Y59A8B.13) (Caenorhabditis elegans)
T5 sequence: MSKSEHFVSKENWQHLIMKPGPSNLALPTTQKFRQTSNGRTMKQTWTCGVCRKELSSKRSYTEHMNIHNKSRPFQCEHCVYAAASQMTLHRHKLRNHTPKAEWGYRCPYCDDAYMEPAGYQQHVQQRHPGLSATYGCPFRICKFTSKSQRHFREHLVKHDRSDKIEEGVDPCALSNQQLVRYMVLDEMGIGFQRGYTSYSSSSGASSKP

Sequence of sptf-3 (Y40B1A.4) (Caenorhabditis elegans) (Q9XW26 266-412): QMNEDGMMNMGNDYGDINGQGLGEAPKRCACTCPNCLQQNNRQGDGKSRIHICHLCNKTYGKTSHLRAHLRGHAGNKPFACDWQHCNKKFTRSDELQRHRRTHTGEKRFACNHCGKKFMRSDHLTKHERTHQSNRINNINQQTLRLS
Sequence of ZC328.2 (ZC328.2) (Caenorhabditis elegans) (O02050 entry or part of it): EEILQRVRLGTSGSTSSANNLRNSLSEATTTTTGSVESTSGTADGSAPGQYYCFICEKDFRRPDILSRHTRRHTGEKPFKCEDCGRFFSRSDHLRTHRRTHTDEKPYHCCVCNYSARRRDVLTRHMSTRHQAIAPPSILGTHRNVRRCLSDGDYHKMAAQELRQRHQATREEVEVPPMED
Sequence of egrh-1 (C27C12.2) (Caenorhabditis elegans) (Q18250 324-461): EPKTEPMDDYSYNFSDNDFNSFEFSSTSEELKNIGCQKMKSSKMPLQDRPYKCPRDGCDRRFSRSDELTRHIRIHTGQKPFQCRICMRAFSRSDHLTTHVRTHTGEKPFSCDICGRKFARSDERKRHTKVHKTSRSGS

## CCGTGACC (double strand) [8-mer CCGTGACC]
[1]
  binding signal (PBM E-score (-0.5 to 0.5)): 0.484

## CGTCACGC (double strand) [8-mer CGTCACGC]
[1]
  binding signal (PBM E-score (-0.5 to 0.5)): 0.488

## AGGGGCGG (double strand) [8-mer AGGGGCGG]
[2]
  binding signal (PBM E-score (-0.5 to 0.5)): 0.494

## AAGACATT (double strand) [8-mer AAGACATT]
[3]
  binding signal (PBM E-score (-0.5 to 0.5)): 0.458

## TAAAATAA (double strand) [8-mer TAAAATAA]
[4]
  binding signal (PBM E-score (-0.5 to 0.5)): 0.453

## CAAGAAAA (double strand) [8-mer CAAGAAAA]
[3]
  binding signal (PBM E-score (-0.5 to 0.5)): 0.469

## ACGCCCCT (double strand) [8-mer ACGCCCCT]
[2]
  binding signal (PBM E-score (-0.5 to 0.5)): 0.452

## AAAATAAT (double strand) [8-mer AAAATAAT]
[4]
  binding signal (PBM E-score (-0.5 to 0.5)): 0.451

## AAATAAAT (double strand) [8-mer AAATAAAT]
[4]
  binding signal (PBM E-score (-0.5 to 0.5)): 0.452

## GGCGTGAC (double strand) [8-mer GGCGTGAC]
[1]
  binding signal (PBM E-score (-0.5 to 0.5)): 0.468

## ACGCCCCC (double strand) [8-mer ACGCCCCC]
[2]
  binding signal (PBM E-score (-0.5 to 0.5)): 0.49
[5]
  binding signal (PBM E-score (-0.5 to 0.5)): 0.495
[6]
  binding signal (PBM E-score (-0.5 to 0.5)): 0.486
[7]
  binding signal (PBM E-score (-0.5 to 0.5)): 0.495

## GGGGCGTA (double strand) [8-mer GGGGCGTA]
[2]
  binding signal (PBM E-score (-0.5 to 0.5)): 0.462

## GGGGCGGA (double strand) [8-mer GGGGCGGA]
[2]
  binding signal (PBM E-score (-0.5 to 0.5)): 0.475

## CGGTCACG (double strand) [8-mer CGGTCACG]
[1]
  binding signal (PBM E-score (-0.5 to 0.5)): 0.473

## CCGCCCAC (double strand) [8-mer CCGCCCAC]
[2]
  binding signal (PBM E-score (-0.5 to 0.5)): 0.489
[5]
  binding signal (PBM E-score (-0.5 to 0.5)): 0.494
[6]
  binding signal (PBM E-score (-0.5 to 0.5)): 0.489
[7]
  binding signal (PBM E-score (-0.5 to 0.5)): 0.494

## GCGTGACC (double strand) [8-mer GCGTGACC]
[1]
  binding signal (PBM E-score (-0.5 to 0.5)): 0.486

## GACTGCAA (double strand) [8-mer GACTGCAA]
[8]
  binding signal (PBM E-score (-0.5 to 0.5)): 0.491

## AACATCTT (double strand) [8-mer AACATCTT]
[3]
  binding signal (PBM E-score (-0.5 to 0.5)): 0.457

## CGAAGAAA (double strand) [8-mer CGAAGAAA]
[3]
  binding signal (PBM E-score (-0.5 to 0.5)): 0.453

## ACCGTGAC (double strand) [8-mer ACCGTGAC]
[1]
  binding signal (PBM E-score (-0.5 to 0.5)): 0.495

## GAACTACA (double strand) [8-mer GAACTACA]
[8]
  binding signal (PBM E-score (-0.5 to 0.5)): 0.459

## ACCGCCCC (double strand) [8-mer ACCGCCCC]
[2]
  binding signal (PBM E-score (-0.5 to 0.5)): 0.476

## AATATTAA (double strand) [8-mer AATATTAA]
[4]
  binding signal (PBM E-score (-0.5 to 0.5)): 0.455

## CGTGACCA (double strand) [8-mer CGTGACCA]
[1]
  binding signal (PBM E-score (-0.5 to 0.5)): 0.479

## AATAATAA (double strand) [8-mer AATAATAA]
[4]
  binding signal (PBM E-score (-0.5 to 0.5)): 0.461

## GGACTGCA (double strand) [8-mer GGACTGCA]
[8]
  binding signal (PBM E-score (-0.5 to 0.5)): 0.476

## GAACTGCA (double strand) [8-mer GAACTGCA]
[8]
  binding signal (PBM E-score (-0.5 to 0.5)): 0.494
